# Measurements from the nanobody polyreactivity screen of Harvey et al. (2022).
# Experiment: yeast display, Sf9 membrane polyspecificity reagent, FACS + sequencing; frameworks hold sequencing errors
# Outline: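 Polyreactivity labels are assigned by the sorting gate from which each nanobody was recovered. The gates were low and high (top ~1%), set on anti-HA fluorescence for expression and streptavidin fluorescence for reagent binding. Before sorting, galactose-induced (36–48 hours) yeast display cells were stained for 1 hour at 4 °C with 10% biotinylated, detergent-solubilized Sf9 membrane reagent.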
row,Sequence,polyreactivity (PSR sort gate)
1,QVQLVESGGGLVQAGGSLRLSCAASGSIFDGNAMGWYRKATGKERELVAAITNSGGSTYYADSVNGRFTISPENAMNSVYLQKNSLKPEDTAVYYCNALPFAWRRYRWLRTMYYWGQGTQVTVSS,low polyreactivity
2,QVQLVESGGGLVQAGGSLRLSCAASGRTFSWYVMGWYRQAPGKERELVAAISWNGGRTYYADSVKGRFTISRDNAKNTVYLQMNSLKPEDTAVYYCNRDYYWRDGAKYIDDYWGQGTQVTVSS,high polyreactivity
3,QVQLVESGGGLVQAGGSLRLSCAASGRTFVRYTMGWYRQAPGKERELVAAISISGGRTYYADSVQGRFTISRDNAKNTVYLQMNSLKPEDTAVYYCAKDYLGGQLASTGGYDYWGLGTQVTVSS,low polyreactivity
4,QVQLVESAGGFVQAGGSLRLSCAASGSIFTINAMGWYTQAPGKERELVAGIRWRGGSTYYADSVKGRVTISRDNAKNTVYFQMNSLKPEDTAVYYCNTRCLIRKFDYWGQGTQVTVSS,high polyreactivity
5,QVQLVESGGGLVQAGGSLRLSSAASGSTFGIYAMGWYRQAPGKERELVAAISSGGSTNYADSVKGRFTISRDNAKNTVYLQMNSLKPEDTAVYYCAVESVYEYGGYVDSAFDYWGQGTQVTVSS,low polyreactivity
6,QVQLVESGGGLVQAGGSLRLSCAASGSIFWNNAMGWYRQAPGKEREFVATITWSGDSTYYADSVKGRFTISRDNAKNTVYLQMNSLKPEDTAVYYCAALLDYSVADLYSHHVSRYYYWGQGTQVTVSS,low polyreactivity
7,QVQLVESGGGLVQAGGSLRLSCAASGGTFHSNAMGWYRQAPGKERELVASINWSGGSTYYADSVKGRFTISRDNAKNTDYLQMNSLKPEDTAVYYCAARESYPGYGYDHWGQGTQVTVSS,low polyreactivity
8,QVQLVESGGGLVQAGGSLRLSCAASGSTFREYTMGWYRQAPGKERELVAAITNSGGSTYYADSVKGRFTISRDNAKNTVYLQLNSLKPEDTAVYYCAAEVGIVDYDYWGQGTQVTVSS,low polyreactivity
9,QDHLVESGGGLVQAGGSLRLSCAAYGRTFESYAMGRYRHAPGKERELVAAISYSGGSTYYADSVKGRFTISRDNAKNTVYLQMNSLKPEDTAVYYCAVRWRYKYDYWGQGTQVTVSS,high polyreactivity
10,QVQLVESGGGLVQAGGSLRLSCAASGFTFAPYDMGWYRQAPGKERELVATISWSGARTYYADSVKGRFTISRDNAKNTVYLQMNSLKAEDTAVYYCAAAYSSSKSSGNYYYWGQGTQVTVSS,high polyreactivity
11,QVQLVESGGGLVQAGGSLRLSCAASGSIFSQYAMGWYRQAPGKERELVAAISGGGGSTSYADSVKGRFTISRDNAKNTVYLQMNSLKPDDTAVYYCAAYLYNRPYQLTGYYDGYGYWGQGTQVTVSS,low polyreactivity
12,QVQLVESGGGLVQAGGSLRLSCAASGFLFYYYAMGWYRQAPGKEREFVAAIRWNGGSTYYADSVKGRFTISRDNAKNTVYLQMNSLKPEDTAVYYCAAVWVQTTYADLYKYYYWGQGTQVTVSS,low polyreactivity
13,QVQLVESGGGLVQAGGSLRLSCAASGSTFPPNAMGRYRQAPGKERELVAAISFSSGRTYYADSVKGRFTFSRDNAKNTVYLQMNSLKPEDTAVYYCAADHGYLGQGTQVTVSS,low polyreactivity
14,QVQLVESGGGLVQAGCSLRLSCAASGSIFSTYAMGWYRQAPGKERELVAAITSDGTYADSVKGRFTISRDNARNTVYLQMNSLKPEDTAVYYWAAYYPYTRHGDYWGQGTQVTVSS,low polyreactivity
15,QVQLVESGGGLVQAGGSLRLSCAASGFIFIKYAMGWYRQAPGKERELVAAISSSGGSTYYADSVKGRFTISRDNAKNTVYLQMNSLKPEDTAVYYCAARTYRGLAYDYWGQGTQVTVSS,high polyreactivity
16,QVQLVESRGGLVQAGGSLRLSCAASGTTINFYPMGWYRQAPGKERELVAAIRVSSGSTYYADSVKGRFTISRDNAKNNVYLQMNSLKPEDTAVYYCAAFLKDRSPRDGYDYWGQGSQVTVSS,high polyreactivity
17,QVQLVESGGGLVQAGGSLRLSCDASGRTFWRYAMGWYRQAPGKERELVATISSGGSTNYADSVKGRFTISRDNAKNTVYLQMNSLKPEDTAVYYCNAEYSYYDLLAYDYWGQGTQVTVSS,low polyreactivity
18,QVQLVESGGGLVQAGCSLRLSCAASGSIFTSYAMGWYRQAPGKERELVAAINRSSGTTYYAHSVKGRFTISRDTAKNTVYLQMNSLKREDTAVYYCAKEYGIYTDTPYYYWGQGTQVTVSS,low polyreactivity
19,QDQLEESGVGLLQAGGSLRLSCAASGNTFFVNDMGWYRHAPRKERELLAVISINGDSTFYADSVKGRFTISRDNAKNTVYLQMNSLKPEDTAVYYCAADFRRVFCKYSYYLYFEFDYWGQGTQVTVSS,low polyreactivity
20,QVQLVESGGGLVQAGGSLRLSCAASGSIFIYNAMGWYRQAPGKERELVAAISSSGGSTYYADSVKGRFTISRDNAKNTVYLQMNSLKPVDTAVYYCAARTYYVRGLGGRPGMDYWGQGTQVTVSS,low polyreactivity
21,QVQLVESGGGLVQAGGSLRLSCAASGRTFWTNAMGWYRQAPGKERELVASINWSGGGTYYADSVKGRFTISRDNAKNTVYLQMNSLKPEDTAVYYCNVYSNPEKEYEYWGQGTQVTVSS,low polyreactivity
22,QVQLVESGGGLVQAGGSLRLSCAASGSTYNINAMGWYRQAPGKERELVAAISWSGGSTYYADSVKGRFTISRDNAKNTVYLQMNSLKPEDTAVYYCNALWVWYRGSSVRWVGGYDYWGQGTQVTVSS,high polyreactivity

row,Sequence,polyreactivity (PSR sort gate)
1,QVQLVESGGGLVQAGGSLRLSCAASGSILEPYAMGWYRQAPGKERELVAAISSSGGSTRYADSVKWRFTISRDNAKNTVYLQMNSLKPEDTAVYYCAARFRAKFNYWGQGTQVTVSS,high polyreactivity
2,QVQLVESGGGLVQAGGSLRLSCAASGRIFYDNTMGWYRQAPGKERELVATISSAASTNYADSVKGRFTISRDNAKNTVYLQMNSLKPEDTAVYYCAAEWSTYGYQVLPVDYDYWGQGTQVTVSS,low polyreactivity
3,QVQLVESGGGLVQAGGSLRLSCAATGRIFGGYPMGWYRQAPGKERELVAVISGRGGSTYYADSVKGRFTISRDNAKNTVYLQMNSLIPEDTAVYYCAAVGYYAWTFGYDYWGQGTQVTVSS,high polyreactivity
4,QVQLVESGGGLVHAGGSLSLSCAAYYAMGWYRQAPGKERELVAAIDDCTSTNYADSVKGRFTISRDNAKNTVYLQMNSLKPEDTAVDYCNKLSEVTYYGSKFDYWGQGTQVTVSS,low polyreactivity
5,QVQLVESGGGLVQAGGSLRLSCAAYGSSFNHYSMGWYRQAPGKERELVAAISWNGGSTYYADSVKGRFTISRDNAKNTVYLQMNSLKPEDTAVYYCNALVTTTPRYDYWGQGTQVTVSS,high polyreactivity
6,QVQLVESGGGLVQAGGSLRLSCAASGRIFRTNAMGWYRQAPGKERELVAAITFSGGGTYYADSVKGRFTISRDNAKNTVYLQMNSLKPEDTAVYYCATDWYYEYYYWGQGTQVTVSS,low polyreactivity
7,QVQLVESGGGLVQAGGSLRLICAASGSTFPKYAMGWYRQAPGKERELVASISVTTGSTYYADSVKGRFTISRDYAKNTVYLQMNSLKPEDTAVYYCAKRTYSRKFRGAYNYWGQGTQVTVSS,high polyreactivity
8,QVQLVESGGGLVQAGGSLRLSCAASGRIFYKYVMGGYRQAPGKARVLVAAINRSGGTTYYADSVKGRFTISRDNAKKTVYLQMNSQKPEDTAVYYCNATLPAYWPYYYYQGGDDYWGQGTQVTVSS,low polyreactivity
9,QVQLVESGGGLVQAGGRLRLSCAASGRIFWINDMGWYRQAPGKERELVAAITWSGASTYYADSVKGRFTISRDNAKNTVYLQMNSLKPEDTAVYYCAAVIADSLYYSYDYWGQGTQVTVSS,high polyreactivity
10,QVQLVESGGGLVQAGGSLRLSCAASGRIFAFYALGLYRQAPGKEREFVAAITYSGGNTNYADSVKGRFTISRDNAKNTVYLQMNSLKPEDTAVYYCAADLVYGVYYQEDYWGQGTQVTVSS,low polyreactivity
11,QVQLVESGGGLVQAGGSLRLSCAASGSIFDRYAMGWYRQAPGKERELVAAITTSGGSTSYADSVKGRYTISRDNAKNTVYLQMNSLIPEDTAVYYCAAGYDYVFAFLNEYDYWGQGTQVTVSS,low polyreactivity
12,QVQLVESGGGLVQAGGSLRLSCAASGRTFSAYAMGWYRQAPGKEMELVARITSVDSTNYADSVKGRFTISRDNAKNTVYLQMNSLKPEDTAVYYCNATFGYPFVDYDDYWGQGTQVTVSS,low polyreactivity
13,QDQLVESGGGLVQAGGSLRLSCAASGSTFLINAMGWYRQAPGKERELVAAISDSGGSTHYADSVKGRFTISRDNAKNTVYLEMNSLKPEDTAVYYCAATIPTTLILYGYWGQGTQVTVSS,low polyreactivity
14,QVQLVESGGGLVQAGGSLRLSCAASGRIIWSNAMGWYRQAPGKERELVAGITGSGGNTYYADSVKGRFTISRDNAKNTVYLHMNSLKPEDTAVYYCNARSGSRPSSSYRYDYWGQGTQVTVSS,low polyreactivity
15,QVQLVESGGGLVQAGGSLRLSCAASGKTFPANAMGWYRPAPGKERELVADISVSDGSTYYADSVKGRFTISRDNAKNTVYLQMNSLKPQDTAVYYCNARKRPNFYVKSFTQIGGRFDYWGQGTQVTVSS,low polyreactivity
16,QVQLVESGGGLLQAGGSLRLSCAASGSTSPANAMGWYRQAPGKERELVAVINSGGGTNYADSVKGRFTISRDNAKNTVYLQMNCLKPEDTAVYYCAKGYRRSFIGYWYLKYGYWGQGSQVTVSS,high polyreactivity
17,QVQLVESGGGLVQAGGSLRLSCAASGGTFRLYTMGWYRQAPGKERELVAGISSSSGSTYYADSVKGRFTISRDNAKNTVYLQMNILKPEDTAVYYCAAYWPRSRYDYWGQGTQVTVSS,high polyreactivity
18,QVQLVESGGGLVQAGGSLRLSCAASGRIFLTYAMGWYRQAPGKERELVAAISTSGTRTYYADSVKGRFTISRDNAKNTVYLQMNSLKPEDTAVYYCAREKYNYRTYEYWGQGTQVTVSS,high polyreactivity
19,QVQLVESGGGLVQAGGSLRLSCAASGSTFGVNDMGWYRQAPWKERELVAAISRGAITNYADSVKGRFTISRDNAKNTVYLQMNSLKPEDTAVYYCAAGFVTYYVPQYKEYGYDYWGQGTQVTVSS,low polyreactivity
20,QVQLVESGGGLVQAGGSLRLSCAASGFTFRRNAMGWYRQAPGKERELVAAITYNGGTTYYADSVKGRFTISRDYAKNTVYLQMNSLKPVDTAVYYCNAPYGRQGYDYWGQGTQVTVSS,low polyreactivity
21,QVQLVESGGGLVQAGGSLRLSCAASGITFYEYAMGWYRQAPGKERELVAAISTSGGNTYYADSVKGRFTISRDNAKNTVYLQMKSLKPEDTAVYYCAAQGTASSYSGGDYWGQGTQVTVSS,low polyreactivity
